Results from PMC13544220, “Glycemic and bodyweight effects of GIPR coding variation reflect differences in surface expression and intrinsic functional impairment” (Science Advances, 2026).

How the values were obtained:
Format in all cases: cell-based, human
[1] = test system: wild-type and variant SNAP-GIPR; experiment: Surface SNAP-GIPR expression (SNAP-tag labelling) in AD293 cells; details: for AD293 Surface: Fig S3E, mean; for Surface SNAP-GIPR expression: sheet Fig 1C;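 as to all read-outs here: scaled to the experimental average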
Procedure, shortened: (§1)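 Read-out: whole-cell fluorescence of surface-only SNAP label (Alexa Fluor 647, 500 nM, 10 min, RT), wide-field 20X, several FOVs per well. Flat-field corrected, phase-contrast masked, nontransfected-well signal subtracted; normalized to experiment mean or wild-type.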

[2] = test system: wild-type and variant SNAP-GIPR; experiment: Constitutive and agonist-mediated internalization, reversible SNAP-tag labelling, INS-1 cells; parameters: key to Internalisation, GIP-only / Internalisation, Vehicle / Internalisation, +GIP: % internalization: residual fluorescence after Mesna vs pre-Mesna; details: Mean
Procedure, shortened: (§2)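 Percentage internalization calculated as specific SNAP fluorescence remaining after 10 min Mesna exposure, relative to pre-Mesna signal, imaged in TNE buffer (pH 8.6).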

[3] = test system: wild-type and variant SNAP-GIPR; experiment: Single-concentration GIP cAMP response by HTRF in AD293 cells; details: Fig S3F, HTRF, mean;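 also: ratio to experiment-wide average response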
Description: (§3) All variants were tested in parallel on each occasion to control for transfection efficiency differences between experiments.

[4] = test system: wild-type and variant SNAP-GIPR; experiment: Single-concentration GIP cAMP response by HTRF in INS-1 cells; details: Fig S3E, mean
Description: as §3

[5] = test system: wild-type and variant SNAP-GIPR; experiment: cADDis cAMP imaging in AD293 cells, ensemble, expression-matched and per decile; details: Fig S3F, cADDis, mean;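 also: Ensemble cells as % of IBMX/FSK response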
Procedure, shortened: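 Surface GIPR and cAMP are measured in individual AD293 cells coexpressing SNAP-tagged receptor and the green cADDis biosensor, imaged live at 37°C. Responses are reported ensemble, expression-matched against wild-type deciles with extremes trimmed, or within each variant's own surface deciles.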

[6] = test system: wild-type and variant SNAP-GIPR; experiment: Surface SNAP-GIPR expression (SNAP-tag labelling) in INS-1 cells; details: Fig 4G; Mean
Procedure, shortened: as §1

[7] = test system: wild-type and variant SNAP-GIPR; experiment: Constitutive and agonist-mediated internalization, reversible SNAP-tag labelling, AD293 cells; parameters: key to Internalisation, Vehicle / Internalisation, +GIP / Internalisation, GIP-only: % internalization: residual fluorescence after Mesna vs pre-Mesna; Surface expression: unit not given here; details: Mean
Procedure, shortened: as §2

B1: I403V (protein, UniProt P48546 22-466, looked up, variant I403V)
Gastric inhibitory …: RAETGSKGQTAGELYQRWERYRRECQETLAAAEPPSGLACNGSFDMYVCWDYAAPNATARASCPWYLPWHHHVAAGFVLRQCGSDGQWGLWRDHTQCENPEKNEAFLDQRLILERLQVMYTVGYSLSLATLLLALLILSLFRRLHCTRNYIHINLFTSFMLRAAAILSRDRLLPRPGPYLGDQALALWNQALAACRTAQIVTQYCVGANYTWLLVEGVYLHSLLVLVGGSEEGHFRYYLLLGWGAPALFVIPWVIVRYLYENTQCWERNEVKAIWWIIRTPILMTILINFLIFIRILGILLSKLRTRQMRCRDYRLRLARSTLTLVPLLGVHEVVFAPVTEEQARGALRFAKLGFEIFLSSFQGFLVSVLYCFINKEVQSEVRRGWHHCRLRRSLGEEQRQLPERAFRALPSGSGPGEVPTSRGLSSGTLPGPGNEASRELESYC
With B1 as the molecule, how does the “AD293 Surface” value ([1]; column repeated, paired with cAMP 100 nM) read?
Its value is 1.077.

And the “AD293 Surface” value ([1]; paired with cAMP 100 pM)?
Its value is 1.077.

What about the “Surface SNAP-GIPR expression” value ([1]; replicate 1) of the same molecule?
Its value is 1.081.

And the “Surface SNAP-GIPR expression” value ([1]; replicate 2)?
The value was 1.363.

And the “Surface SNAP-GIPR expression” value ([1]; replicate 3)?
Its value is 0.2202.

What about the “Surface SNAP-GIPR expression” value ([1]; replicate 4) of the same molecule?
Its value is 1.549.

What about the “Surface SNAP-GIPR expression” value ([1]; replicate 5) of the same molecule?
The value was 1.258.

And the “Surface SNAP-GIPR expression” value ([1]; replicate 6)?
The value was 1.264.

What about the “Surface SNAP-GIPR expression” value ([1]; replicate 7) of the same molecule?
The value was 0.985.

And the “Surface SNAP-GIPR expression” value ([1]; replicate 8)?
Its value is 0.9444.

And the “Surface SNAP-GIPR expression” value ([1]; replicate 9)?
Its value is 1.045.

And the “Surface SNAP-GIPR expression” value ([1]; replicate 10)?
The value was 1.237.

What about the “Surface SNAP-GIPR expression” value ([1]; replicate 11) of the same molecule?
Its value is 0.9384.

And the “Surface SNAP-GIPR expression” value ([1]; replicate 12)?
Its value is 0.958.

What about the “Surface SNAP-GIPR expression” value ([1]; replicate 13) of the same molecule?
The value was 1.387.

What about the “Surface SNAP-GIPR expression” value ([1]; replicate 14) of the same molecule?
The value was 1.061.

What about the “Surface SNAP-GIPR expression” value ([1]; replicate 15) of the same molecule?
The value was 1.05.

What about the “Surface SNAP-GIPR expression” value ([1]; replicate 16) of the same molecule?
Its value is 0.9753.

And the “Surface SNAP-GIPR expression” value ([1]; replicate 17)?
The value was 1.072.

And the “Surface SNAP-GIPR expression” value ([1]; replicate 18)?
Its value is 0.9656.

What about the “Surface SNAP-GIPR expression” value ([1]; replicate 19) of the same molecule?
The value was 0.8084.

And the “Surface SNAP-GIPR expression” value ([1]; replicate 20)?
The value was 1.091.

What about the “Surface SNAP-GIPR expression” value ([1]; replicate 21) of the same molecule?
The value was 0.9955.

What about the “Surface SNAP-GIPR expression” value ([1]; replicate 22) of the same molecule?
Its value is 1.089.

And the “Surface SNAP-GIPR expression” value ([1]; replicate 23)?
Its value is 1.06.

What about the “Surface SNAP-GIPR expression” value ([1]; replicate 24) of the same molecule?
The value was 1.048.

And the “Surface SNAP-GIPR expression” value ([1]; replicate 25)?
Its value is 0.9764.

What about the “Surface SNAP-GIPR expression” value ([1]; replicate 26) of the same molecule?
Its value is 0.8875.

What about the “Surface SNAP-GIPR expression” value ([1]; replicate 27) of the same molecule?
The value was 0.9058.

And the “Surface SNAP-GIPR expression” value ([1]; replicate 28)?
Its value is 1.123.

What about the “Surface SNAP-GIPR expression” value ([1]; replicate 29) of the same molecule?
The value was 1.103.

What about the “Surface SNAP-GIPR expression” value ([1]; replicate 30) of the same molecule?
The value was 1.39.

What about the “Surface SNAP-GIPR expression” value ([1]; replicate 31) of the same molecule?
Its value is 1.166.

What about the “Surface SNAP-GIPR expression” value ([1]; replicate 32) of the same molecule?
The value was 1.223.

What about the “Surface SNAP-GIPR expression” value ([1]; replicate 33) of the same molecule?
Its value is 1.12.

And the “Surface SNAP-GIPR expression” value ([1]; replicate 34)?
Its value is 1.156.

And the “Surface SNAP-GIPR expression” value ([1]; replicate 35)?
Its value is 1.076.

And the “Surface SNAP-GIPR expression” value ([1]; replicate 36)?
Its value is 1.273.

And the “Surface SNAP-GIPR expression” value ([1]; replicate 37)?
Its value is 1.139.

What about the “Surface SNAP-GIPR expression” value ([1]; replicate 38) of the same molecule?
The value was 1.049.

And the “Surface SNAP-GIPR expression” value ([1]; replicate 39)?
Its value is 1.042.

What about the “Surface SNAP-GIPR expression” value ([1]; replicate 40) of the same molecule?
Its value is 1.006.

What about the “Surface SNAP-GIPR expression” value ([1]; replicate 41) of the same molecule?
The value was 1.094.

What about the “+GIP internalisation (100 nM)” value ([2]; Fig 4G, GIP 100 nM) of the same molecule?
Its value is 0.5388.

And the “GIP-specific internalisation (100 nM)” value ([2]; Fig 4G, GIP 100 nM)?
Its value is 0.1314.

And the “Constitutive internalisation (100 nM)” value ([2]; Fig 4G)?
Its value is 0.4074.

What about the “Internalisation, +GIP” value ([2]; Fig S4C, INS-1) of the same molecule?
Its value is 49.7833.

What about the “Internalisation, GIP-only” value ([2]; Fig S4C, INS-1) of the same molecule?
The value was 12.345.

What about the “Internalisation, Vehicle” value ([2]; Fig S4C, INS-1) of the same molecule?
Its value is 37.4383.

What about the “AD293 100 pM HTRF” value ([3]; AD293, 100 pM) of the same molecule?
The value was 1.267.

And the “AD293 100 nM HTRF” value ([3]; AD293, 100 nM)?
Its value is 1.595.

What about the “INS-1 cAMP (100 nM)” value [4] of the same molecule?
Its value is 1.36.

What about the “AD293 100 pM cADDis” value ([5]; AD293, 100 pM) of the same molecule?
The value was 32.3253.

And the “AD293 100 nM cADDis” value ([5]; AD293, 100 nM)?
The value was 38.62.

And the Surface expression [6]?
The Surface expression was 1.09.

And the “+GIP internalisation (100 nM)” value ([7]; Fig 4E, GIP 100 nM)?
Its value is 0.6419.

What about the “GIP-specific internalisation (100 nM)” value ([7]; Fig 4E, GIP 100 nM) of the same molecule?
The value was 0.176.

What about the “Constitutive internalisation (100 nM)” value ([7]; Fig 4E) of the same molecule?
Its value is 0.4659.

What about the Surface expression ([7]; Fig 4E) of the same molecule?
The Surface expression was 1.133.

And the “Internalisation, +GIP” value ([7]; Fig S4C, AD293)?
Its value is 57.0289.

What about the “Internalisation, GIP-only” value ([7]; Fig S4C, AD293) of the same molecule?
Its value is 15.5744.

And the “Internalisation, Vehicle” value ([7]; Fig S4C, AD293)?
Its value is 41.4545.
